The results in this text go back to patent EP4635980A1 (Medigene Immunotherapies GmbH, dated 2025).

Experiment [1] has as its target T1, ALA-10 mutagenic UNI-tag peptide (DKGEVPKDRASA).
T1 construct: UNI-tag with alanine at position 10 (F10A); also called Uni-Tag-ALA 10; positive control
T1 peptide: DKGEVPKDRASA
As to the kind of experiment: dot blot, peptide on PVDF membrane.

The target in experiment [2] is T2, ALA-5 mutagenic UNI-tag peptide (DKGEAPKDRFSA).
T2 construct: UNI-tag with alanine at position 5 (V5A); also called Uni-TAG-ALA 5; negative control
T2 peptide: DKGEAPKDRFSA
As to the kind of experiment: dot blot, peptide on PVDF membrane.

B1: MDG827 monoclonal antibody (MDG827 hybridoma supernatant) (antibody, V domains shown)
VH: EVQLEESGGGLVQPGRSMKLSCAASGFTFSDYGMAWVLQGPTKGLEWVASISYDGNRPYYRDSVKGRFTISRDNAKSTLYLQMESLRSEDTATYYCVKDLFEIGDFDYWGQGVMVTVSS
VL: DVLMTQTPVSLPVSLGGQVSISCRSSQSLVHSDGNTYLHWYLQKPGQSPQLLIYRVSNRFSGVPDRFTGSGSGTDFTLKISRVEPEDLGVYYCLQSTHFPLTFGSGTKLEIKR
notes: detected with anti-IgG2a secondary antibody; Used as hybridoma supernatant; also called MDG827 antibody; MDG827 Ab
As to B1, the binding result was “binds” in experiment [1] and “no binding” in experiment [2].

B2: recombinant monoclonal MDG827 antibody (produced in HEK293 cells) (antibody, V domains shown)
VH: EVQLEESGGGLVQPGRSMKLSCAASGFTFSDYGMAWVLQGPTKGLEWVASISYDGNRPYYRDSVKGRFTISRDNAKSTLYLQMESLRSEDTATYYCVKDLFEIGDFDYWGQGVMVTVSS
VL: DVLMTQTPVSLPVSLGGQVSISCRSSQSLVHSDGNTYLHWYLQKPGQSPQLLIYRVSNRFSGVPDRFTGSGSGTDFTLKISRVEPEDLGVYYCLQSTHFPLTFGSGTKLEIKR
notes: used as culture supernatant; Detected with anti-rat IgG2a; also called recombinantly produced MDG827; anti-TRBC MDG827 antibody
Turning to B2, the binding result in experiment [2] is given as “no binding”.
